T1: Brn2 DNA-binding domain (BD-Brn2) (Mus musculus (B6), UniProt P31360 336-435)
T1 sequence: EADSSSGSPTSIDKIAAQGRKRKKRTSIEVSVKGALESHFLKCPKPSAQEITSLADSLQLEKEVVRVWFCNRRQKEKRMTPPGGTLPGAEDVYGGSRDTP

T2: Oct6 DNA-binding domain (BD-Oct6) (Mus musculus (B6), UniProt P21952 317-416)
T2 sequence: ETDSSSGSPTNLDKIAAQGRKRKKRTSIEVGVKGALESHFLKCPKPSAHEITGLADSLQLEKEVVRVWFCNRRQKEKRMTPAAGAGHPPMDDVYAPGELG


Key:
Experiment in all cases: EMSA; 10% glycerol, 20 mM HEPES pH 7.8, 45 mM KCl, 10 mM NaCl, 1 mM EDTA, 1 mM DTT, 0.2 ug/uL BSA, 0.1% NP-40, 50 ng poly-dIdC; 20 ng each GST protein; room temperature 30 min (heterodimers 4 C); 6% PAGE 0.25x TBE
Conditions in all cases: protein: recombinant; tags: GST (N-terminal, pGEX-6P-1); label: 32P-dCTP fill-in of the 5' (dG)5 overhangs of both strands (Methods; control probes are given with GGG)
[1] = molecular target: Pax6 DNA-binding domain (BD-Pax6) (Mus musculus (B6), UniProt P63015 190-289)
Chain of Pax6 DNA-binding domain (BD-Pax6) (P63015 190-289): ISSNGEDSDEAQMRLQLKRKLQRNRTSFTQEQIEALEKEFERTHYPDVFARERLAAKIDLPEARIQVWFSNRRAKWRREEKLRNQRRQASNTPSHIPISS
In short: (§1)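 Transcription factor DNA-binding domains carrying a GST tag were expressed in E. coli BL21, purified on glutathione-sepharose and tested against annealed candidate cis-element oligonucleotides labelled with 32P-dCTP. Each reaction held 20 ng protein, 40,000–50,000 cpm probe and 50 ng poly-dIdC in HEPES/KCl glycerol buffer with BSA and detergent, incubated 30 min at room temperature, then run on 6% polyacrylamide in 0.25×TBE at 4°C. DNA binding was scored as the radioactivity of the band in the expected shift region, read on a phosphor imager.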

[2] = molecular target: T1, Brn2 DNA-binding domain (BD-Brn2)
In short: as §1

[3] = molecular target: T2, Oct6 DNA-binding domain (BD-Oct6)
In short: as §1

Binder	binding result [1]	binding result [2]	binding result [3]
73 (dsDNA) DNA 1: GGGGGCTTGTCCTCAGCATCTATGGTAACACACAAATCCTGAAGCCCCC DNA 2: GGGGGCTTCAGGATTTGTGTGTTACCATAGATGCTGAGGACAAGCCCCC	no binding	no binding	no binding
74 (dsDNA) DNA 1: GGGGGGACTTTCTTGGCGGATTTGGTAACGACAAAGTTAGGATCCCCC DNA 2: GGGGGATCCTAACTTTGTCGTTACCAAATCCGCCAAGAAAGTCCCCCC	no binding	no binding	no binding
75 (dsDNA) DNA 1: GGGGGGCTCTGGGTATAATTAACAATAAAATGCACCCCC DNA 2: GGGGGTGCATTTTATTGTTAATTATACCCAGAGCCCCCC	binds	binds	binds
76 (dsDNA) DNA 1: GGGGGCAGGTATGATTGTCCATATTGCTAATAAACCCCCC DNA 2: GGGGGGTTTATTAGCAATATGGACAATCATACCTGCCCCC	binds	binds	binds
77 (dsDNA) DNA 1: GGGGGTATGTCTATTTGTTTTTTATTTTTTGAAGACTCCCCC DNA 2: GGGGGAGTCTTCAAAAAATAAAAAACAAATAGACATACCCCC	no binding	no binding	no binding
78 (dsDNA) DNA 1: GGGGGTCTTTTGATTTGTCCGATTTAGGTTTTAAACCCCC DNA 2: GGGGGTTTAAAACCTAAATCGGACAAATCAAAAGACCCCC	no binding	no binding	binds
79 (dsDNA) DNA 1: GGGGGTGATAGTAACAAAAACCATTTTGTTTTTGGCTCCCCC DNA 2: GGGGGAGCCAAAAACAAAATGGTTTTTGTTACTATCACCCCC	no binding	no binding	no binding
80 (dsDNA) DNA 1: GGGGGCATCCCAAATTGTTTTCTCACTTTTGTACCACAGATAGATCCCCC DNA 2: GGGGGATCTATCTGTGGTACAAAAGTGAGAAAACAATTTGGGATGCCCCC	no binding	no binding	binds
81 (dsDNA) DNA 1: GGGGGAGAGTGCTGGTATTAAAAGGCACAAACTTTCTTTCCCCC DNA 2: GGGGGAAAGAAAGTTTGTGCCTTTTAATACCAGCACTCTCCCCC	no binding	no binding	no binding
82 (dsDNA) DNA 1: GGGGGACTATTTATTTGTGTTTTCCTATTCACTTTACATCCCCC DNA 2: GGGGGATGTAAAGTGAATAGGAAAACACAAATAAATAGTCCCCC	no binding	no binding	binds
83 (dsDNA) DNA 1: GGGGGGTCCAAGTTTTGTGACCCTTTAATACAGTTAGATCCCCCC DNA 2: GGGGGGATCTAACTGTATTAAAGGGTCACAAAACTTGGACCCCCC	binds	no binding	binds
84 (dsDNA) DNA 1: GGGGGTATGAATCACAATGTAAATATCTGTGTTTACCCCC DNA 2: GGGGGTAAACACAGATATTTACATTGTGATTCATACCCCC	binds	no binding	no binding
85 (dsDNA) DNA 1: GGGGGACATATGCAATTGTTTCCTGTATTATAGTAGAGATCCCCC DNA 2: GGGGGATCTCTACTATAATACAGGAAACAATTGCATATGTCCCCC	binds	no binding	no binding
86 (dsDNA) DNA 1: GGGGGAGTTTAGTTTGTAGAGTACTTACCTAGCAGCACAAAGCCCTGCCCCC DNA 2: GGGGGCAGGGCTTTGTGCTGCTAGGTAAGTACTCTACAAACTAAACTCCCCC	no binding	no binding	no binding
87 (dsDNA) DNA 1: GGGGGTTATGACTGTTTAATAATATATATTGTGTTCTGGCCCCCC DNA 2: GGGGGGCCAGAACACAATATATATTATTAAACAGTCATAACCCCC	binds	binds	binds
88 (dsDNA) DNA 1: GGGGGTGTTTTGTTTTGTTTTTTGTATTGGGAAGTGGGCCCCC DNA 2: GGGGGCCCACTTCCCAATACAAAAAACAAAACAAAACACCCCC	no binding	no binding	no binding
89 (dsDNA) DNA 1: GGGGGCTACCACACCCAACCTCTAGTAAAGGTTTACAAAATGAATGACCCCC DNA 2: GGGGGTCATTCATTTTGTAAACCTTTACTAGAGGTTGGGTGTGGTAGCCCCC	binds	no binding	no binding
90 (dsDNA) DNA 1: GGGGGTGCTGTTTTTTGTTACTGTCACTAATTACATTTTAAATTATCCCCC DNA 2: GGGGGATAATTTAAAATGTAATTAGTGACAGTAACAAAAAACAGCACCCCC	binds	binds	binds
91 (dsDNA) DNA 1: GGGGGTTTGTTTGTTTGTTTTTAAAAATAAGGTCTCGGGCCCCC DNA 2: GGGGGCCCGAGACCTTATTTTTAAAAACAAACAAACAAACCCCC	binds	no binding	binds
92 (dsDNA) DNA 1: GGGGGATATAATAATAAATCTTTAAAACAAAAAAAAAAACCCCC DNA 2: GGGGGTTTTTTTTTTTGTTTTAAAGATTTATTATTATATCCCCC	binds	binds	binds
93 (dsDNA) DNA 1: GGGGGATAGAGGCACAAAAATTTCCAGAGACTGGCCCCC DNA 2: GGGGGCCAGTCTCTGGAAATTTTTGTGCCTCTATCCCCC	no binding	no binding	no binding
94 (dsDNA) DNA 1: GGGGGATCTGTAAAGGAAATTACTTTGTAGGAAATTTGATGGAACTGCCCCC DNA 2: GGGGGCAGTTCCATCAAATTTCCTACAAAGTAATTTCCTTTACAGATCCCCC	binds	binds	binds
95 (dsDNA) DNA 1: GGGGGGGTTTTCTTTTGTACACTTAATATCCGCTGGGGCCCCC DNA 2: GGGGGCCCCAGCGGATATTAAGTGTACAAAAGAAAACCCCCCC	binds	no binding	binds
96 (dsDNA) DNA 1: GGGGGACATAGACACAAATAGCAGACAATGACCTTGACCCCC DNA 2: GGGGGTCAAGGTCATTGTCTGCTATTTGTGTCTATGTCCCCC	no binding	no binding	no binding
97 (dsDNA) DNA 1: GGGGGTAGATGCTACAAAAGATACTGATTAAAACCCAAATGCCCCC DNA 2: GGGGGCATTTGGGTTTTAATCAGTATCTTTTGTAGCATCTACCCCC	binds	binds	binds
